We go through 24 molecules from US20170152292A1 (FONDATION THE ARK, published 2017).

Experiment [1] concerns the target monomeric N protein NK170AR185A-His (N^mono) (human respiratory syncytial virus (HRSV)) (UniProt P03418). The experiment is described as follows: SPR, GST-P[1-40] mutant captured on anti-GST antibody, N^mono injected.
The target is the same in experiment [2]. Description: SPR (Proteon XPR36): GST-P[1-40] mutant captured on anti-GST antibody, N^mono injected, steady-state fit.
The target of experiment [3] is RSV nucleoprotein N, wild type (N^0 form in cells) (human respiratory syncytial virus (HRSV)) (UniProt P03418). The experiment is described as follows: cell-based or functional assay.
In experiment [4] the target is monomeric N protein NK170AR185A-His (N^mono) (human respiratory syncytial virus (HRSV)) (UniProt P03418). The experiment is described as follows: SPR (ProteOn XPR36), GST-P[1-40] captured on anti-GST antibody, N^mono injected, steady-state fit; upper end of the range 4-5 µM.
Experiment [5] has the same target. The experiment is described as follows: SPR (ProteOn XPR36), GST-P[1-40] captured on anti-GST antibody, N^mono injected, steady-state fit; lower end of the range 4-5 µM.
The target of experiment [6] is T1, monomeric N protein NK170AR185A-His (N^mono) (human respiratory syncytial virus (HRSV), UniProt P03418 1-391).
T1 construct: also called NK170AR185A-His protein; recombinant N^mono
T1 sequence: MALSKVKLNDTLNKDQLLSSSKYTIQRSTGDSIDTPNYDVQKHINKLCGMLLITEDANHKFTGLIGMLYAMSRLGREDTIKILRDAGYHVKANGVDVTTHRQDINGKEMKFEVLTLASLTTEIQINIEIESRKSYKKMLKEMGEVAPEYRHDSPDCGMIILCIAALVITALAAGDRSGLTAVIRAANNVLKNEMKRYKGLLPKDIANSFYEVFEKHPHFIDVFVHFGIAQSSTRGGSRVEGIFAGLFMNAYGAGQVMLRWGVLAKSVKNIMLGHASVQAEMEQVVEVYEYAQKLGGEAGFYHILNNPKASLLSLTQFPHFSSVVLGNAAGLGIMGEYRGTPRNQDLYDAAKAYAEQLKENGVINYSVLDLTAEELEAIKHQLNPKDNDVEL
Description: fluorescence polarization competition: stapled peptide titrated against FAM-P(1-40) on recombinant N^mono.

Values joined by “and” are separate entries in the source; they are usually repeats but may differ in a detail not shown here. Equal values may be shown once. Bridges are numbered along the chain shown (N, C = ends). Where no end group is shown, it is not given here. [ ]: non-standard residue; d: D form. R8 = C=CCCCCCC[C@@](C)(N)C(=O)O; S5 = C=CCCC[C@](C)(N)C(=O)O

For “GST-P[1-40] F4A (from UniProt P12579 1-40)”, the Kd in experiment [1] is > 10 µM and < 20 µM; in experiment [2] it was 13.8 µM.
Regarding “GST-P[1-40] K25A (from UniProt P12579 1-40)”, the dissociation constant Kd in experiment [1] was > 5 µM and < 10 µM; in experiment [2], 7.77 µM.
In experiment [3], “RSV phosphoprotein P K25A (full length, plasmid pP) (from UniProt P12579 1-241)” had a luciferase activity in the HRSV minigenome replication assay of 50 % reduction.
In experiment [3], “RSV phosphoprotein P G10A (full length, plasmid pP) (from UniProt P12579 1-241)” had a luciferase activity in the HRSV minigenome replication assay of 50 % reduction and a polymerase activity in the HRSV minigenome replication assay of 80 % reduction.
Regarding “GST-P[1-40] K3A (from UniProt P12579 1-40)”, the Kd in experiment [2] is 3.49 µM.
As for “GST-P[1-40] E22A (from UniProt P08515 1-218; P12579 1-40)”, the Kd in experiment [2] turned out to be 7.49 µM.
“GST-P[1-40] G26A (from UniProt P12579 1-40)”: in experiment [1], the Kd turned out to be 2.6 µM and the fold increase of affinity against wild type GST-P[1-40] turned out to be 2 fold.
In experiment [3], “RSV phosphoprotein P F8A (full length, plasmid pP) (from UniProt P12579 1-241)” yielded a luciferase activity in the HRSV minigenome replication assay of 50 % reduction and a polymerase activity in the HRSV minigenome replication assay of 80 % reduction.
For “GST-P[1-40] wild type (from UniProt P12579 1-40)”, the Kd in experiment [4] was less than 5 µM; in experiment [5], greater than 4 µM.
On to “RSV phosphoprotein P E7A (full length, plasmid pP) (from UniProt P12579 1-241)”, for which, in experiment [3], the luciferase activity in the HRSV minigenome replication assay stood at 50 % reduction.
“RSV phosphoprotein P L21A (full length, plasmid pP) (from UniProt P12579 1-241)”: the luciferase activity in the HRSV minigenome replication assay in experiment [3] amounted to 50 % reduction.
“GST-P[1-40] G10A (from UniProt P12579 1-40)”: the Kd in experiment [1] was > 5 µM and < 10 µM; in experiment [2], 5.1 µM.
Regarding “GST-P[1-40] E7A (from UniProt P12579 1-40)”, the Kd in experiment [1] was > 10 µM and < 20 µM; in experiment [2] it was 11.1 µM.
“GST-P[1-40] L21A (from UniProt P08515 1-218; P12579 1-40)”: the Kd in experiment [2] turned out to be 17.6 µM. This counts as double-digit micromolar.
“GST-P[1-40] I24A (from UniProt P12579 1-40)”: the Kd is > 10 µM and < 20 µM in experiment [1]; 16.4 µM in experiment [2].
As for “GST-P[1-40] P6A (from UniProt P12579 1-40)”, the Kd in experiment [2] stood at 4.89 µM. This counts as single-digit micromolar.
As to “RSV phosphoprotein P F20A (full length, plasmid pP) (from UniProt P12579 1-241)”, in experiment [3], the luciferase activity in the HRSV minigenome replication assay worked out at 50 % reduction and the polymerase activity in the HRSV minigenome replication assay came out at 80 % reduction.
As for “GST-P[1-40] E2A (from UniProt P12579 1-40)”, in experiment [1], the Kd was 1.9 µM and the fold increase of affinity against wild type GST-P[1-40] amounted to 2 fold.
For the molecule “GST-P[1-40] S23A (from UniProt P12579 1-40)”, the Kd in experiment [2] worked out at 4.5 µM.
“RSV phosphoprotein P F4A (full length, plasmid pP) (from UniProt P12579 1-241)”: in experiment [3], the luciferase activity in the HRSV minigenome replication assay amounted to 50 % reduction and the polymerase activity in the HRSV minigenome replication assay is 80 % reduction.
Consider “GST-P[1-40] F8A (from UniProt P12579 1-40)”, for which, in experiment [1], the Kd turned out to be 41 µM. That is a double-digit micromolar value.
Molecule “RSV phosphoprotein P I24A (full length, plasmid pP) (from UniProt P12579 1-241)” registered a luciferase activity in the HRSV minigenome replication assay in experiment [3] of 50 % reduction.
In turn, “GST-P[1-40] H9A (from UniProt P12579 1-40)” yielded a Kd in experiment [2] of 4 µM.
With Ac-EDANNKAT[R8]FLESIK[S5]KFAS (staple 9-16) [HEVS108], the binding result in experiment [6] is given as “no binding”.
